From article PMC7153820 (Oncoimmunology, 2020)

How the values were obtained:
[1] = molecular target: biotinylated recombinant human TIM-3-Fc chimera (R&D Systems 2365-TM) (human, UniProt Q8TDQ0, biotin (EZ-Link Sulfo-NHS-LC-Biotinylation kit)); assay: ELISA
rhTIM-3-IgG1-Fc = rhTIM-3-IgG1-Fc (human, UniProt Q8TDQ0); assay: ELISA
[2] = molecular target: rhTIM-3-Fc AF647 (R&D Systems 2365-TM) (Homo sapiens (Human)., UniProt Q8TDQ0, AF647); assay: flow cytometry on cells
[3] = molecular target: human TIM-3 on primary blood cells (Homo sapiens (Human)., UniProt Q8TDQ0); assay: flow cytometry on cells

B1: M6903, fully human anti-TIM-3 monoclonal IgG2 antibody (antibody, V domains shown)
VH: not shown
VL: QSALTQPRSVSGSPGQSVTISCTGTSSDVGGYNYVSWYQQHPGKAPKLMIYDVSKRPSGVPDRFSGSKSGNTASLTISGLQAEDEADYYCSSYADSVVFGGGTKVTVL
IC50 [1]: 7.46 ± 0.052 nM | IC50 (rhTIM-3-IgG1-Fc): 0.353 ± 0.383 nM | IC50 [2]: 4.44 ± 3.12 nM | EC50 [3]: 0.74 ± 0.57 nM
